From publication PMC2988979 (Nature structural & molecular biology, 2010) come the findings set out here.

The target of this assay is recombinant HAT1 holoenzyme (HAT1 and RbAp46) (UniProt O14929;Q16576). Description: pull-down.
recombinant HAT1 holoenzyme (HAT1 and RbAp46), sequence (O14929 whole entry, chain 1 of 2): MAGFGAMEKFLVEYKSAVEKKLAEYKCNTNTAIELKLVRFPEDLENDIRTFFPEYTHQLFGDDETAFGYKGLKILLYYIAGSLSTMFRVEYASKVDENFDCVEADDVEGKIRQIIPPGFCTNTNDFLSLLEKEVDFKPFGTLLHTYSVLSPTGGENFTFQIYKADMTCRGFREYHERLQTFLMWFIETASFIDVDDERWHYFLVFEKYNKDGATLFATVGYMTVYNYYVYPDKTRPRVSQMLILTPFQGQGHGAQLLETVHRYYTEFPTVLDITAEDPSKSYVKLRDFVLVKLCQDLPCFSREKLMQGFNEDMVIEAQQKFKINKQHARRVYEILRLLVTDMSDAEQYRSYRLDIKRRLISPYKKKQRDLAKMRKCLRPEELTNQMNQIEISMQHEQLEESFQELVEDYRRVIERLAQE
recombinant HAT1 holoenzyme (HAT1 and RbAp46), sequence (Q16576 whole entry, chain 2 of 2): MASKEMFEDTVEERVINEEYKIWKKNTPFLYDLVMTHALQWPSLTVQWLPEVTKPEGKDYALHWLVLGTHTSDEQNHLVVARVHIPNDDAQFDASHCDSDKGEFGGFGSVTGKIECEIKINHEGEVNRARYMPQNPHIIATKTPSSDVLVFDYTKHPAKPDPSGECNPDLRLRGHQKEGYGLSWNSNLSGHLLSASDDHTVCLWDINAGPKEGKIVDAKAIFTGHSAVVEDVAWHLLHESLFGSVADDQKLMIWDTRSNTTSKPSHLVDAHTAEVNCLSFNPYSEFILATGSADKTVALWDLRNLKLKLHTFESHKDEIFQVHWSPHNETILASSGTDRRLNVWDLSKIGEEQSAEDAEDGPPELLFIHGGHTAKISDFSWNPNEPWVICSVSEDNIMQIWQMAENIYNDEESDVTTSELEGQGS

B1: GST-tagged ASF1B (natural protein)
chain: MAKVSVLNVAVLENPSPFHSPFRFEISFECSEALADDLEWKIIYVGSAESEEFDQILDSVLVGPVPAGRHMFVFQADAPNPSLIPETDAVGVTVVLITCTYHGQEFIRVGYYVNNEYLNPELRENPPMKPDFSQLQRNILASNPRVTRFHINWDNNMDRLEAIETQDPSLGCGLPLNCTPIKGLGLPGCIPGLLPENSMDCI
Regarding B1, the binding result was “binds”.
